{"source": "paper doi:10.1101/2023.04.20.537738", "about": "(bioRxiv, 2023)", "molecular_target": "SARS-CoV-2 (WA-1) Spike receptor binding domain (RBD)-mouse Fc fusion protein (SARS-CoV-2, UniProt P0DTC2)", "experiment": "flow cytometry on cells"}
{"binder": "FG-10A3 (Family G clone 10A3) human anti-SARS-CoV-2 Spike RBD neutralizing monoclonal antibody (antibody, V domains shown) VH: QVQLVESGGGVVQPGRSLRLSCAASGFTFSSYGMNWVRQAPGKGLEWVAIIWYDGNNTYYVDSVKGRFTISRDNSKNTLYLQMNSLRAEDTAVYYCARKDGSKTYYGYYFDYWGQGTLVTVSS VL: DIQMTQSPSSLSASVGDRVTITCRASQSIHSFLNWYQQKPGKPPNLLIYAASSLQSGLPSRFSGSGSGTDFTLTISSLQPEDFATYYCQQSYITPPTFGHGTKVEIK", "values": [{"measurement": "binding result", "value": "binds"}]}
